{"source": "IntAct's records for PubMed 17891176", "parents": {"B1": {"name": "DNA-binding protein inhibitor ID-1 (Homo sapiens), P41134 (parent)", "chain": "MKVASGSTATAAAGPSCALKAGKTASGAGEVVRCLSEQSVAISRCAGGAGARLPALLDEQQVNVLLYDMNGCYSRLKELVPTLPQNRKVSKVEILQHVIDYIRDLQLELNSESEVGTPGGRGLPVRAPLSTLNGEISALTAEAACVPADDRILCR"}}, "data": [{"variants_of": "B1", "conditions": "with psmd4_human PSMD4, P55036", "values": [{"variant": "V98G", "effect of a mutation on the interaction": "decreasing interaction"}]}]}
